Results reported in patent US20170226213A1 (Daiichi Sankyo, published 2017).

How the values were obtained:
[1] = biological target: T1, human FGFR4 (FGF receptor 4) on cells (human, UniProt P22455 22-802); assay: cell-based or functional assay
[2] = biological target: T1, human FGFR4 (FGF receptor 4) on cells; assay: flow cytometry titration on Huh-7 cells
Procedure: Huh-7 cells (obtained from JCRB Cell Bank) were cultured in DMEM containing 10% FBS under standard conditions at 37° C. and 5% CO₂. Cells were harvested with 5 mM EDTA (in PBS) and 200,000 cells per sample were incubated with indicated anti-FGFR4 antibody (1:3 serial dilution; starting concentration 30 μg/ml) for 30 min at 4° C. After incubation, cells were washed and bound antibody was determined using a Phycoerythrin-labeled anti-human IgG antibody (Jackson Immuno Research). Antibody binding to Huh-7 was measured with a BD Accuri C6 flow cytometer (BD Biosciences, San Jose, Calif.; U.S.A.) and analyzed using the AccuriC6 software. Subsequently, the equilibrium dissociation constant (KD) was determined using Prism (GraphPad Software, La Jolla, Calif., U.S.A.).

[3] = biological target: T2, extracellular domain of human FGFR4 (myc- and His-tagged) (human, UniProt P22455 22-369); assay: ELISA, FGFR4 ECD (myc, His) captured by anti-His antibody
T2 construct: extracellular domain; Captured on the plate by a mouse anti-His tag antibody; also called human FGFR4-His/Myc; FGFR4 ECD; not shown: myc and His tags
Procedure: (§1) Mouse anti-His tag antibody was obtained from Bio-Rad (Hercules, Calif.; U.S.A.) and coated onto MaxiSorp® flat-bottom 96 well ELISA plates (Sigma, St. Louis, Mo.; U.S.A.) at a concentration of 2 μg/ml. After coating, the extracellular domain of human FGFR4 (myc- and His-tagged) was added at a concentration of 0.01 μg/ml. After removal of unbound protein, indicated antiFGFR4 antibody was added (1:4 serial dilution, starting concentration 10 μg/ml) and binding was finally detected with the AttoPhos® AP Fluorescent Substrate System (Promega) using an alkaline-phosphatase coupled goat anti-human IgG F(ab′) fragment on the Fluostar Omega fluorescent plate reader instrument from BMG Labtech (Ortenberg; Germany). Subsequently, dissociation constants were calculated for U4-3, -5 and -9 using Graph Pad Prism (Table 5).

[4] = biological target: T3, cynomolgus monkey FGFR4 on transfected Hek293 cells (cynomolgus monkey); assay: flow cytometry titration on transfected Hek293 cells
T3 construct: whole, on cells
Procedure: Hek293 cells were obtained from CLS (Cell Lines Service, Eppelheim; Germany) and cultured in DMEM containing 10%FBS under standard conditions at 37° C. and 5% CO2. On Day 0, cells were seeded at 4×10⁵ cells/10 cm dish. After 24 h, cells were transfected with plasmids coding for FGFR4 from rat, mouse, human or cynomolgus monkey. Cells were allowed to express the proteins for 48 h and were then dissociated from the dish with 5 mM EDTA in PBS followed by incubation with indicated concentrations of anti-FGFR4 antibody U4-3 or GT-13. Binding was determined using a Phycoerythrin-conjugated anti-human IgG antibody (Jackson Immuno Research Europe). Data was acquired with a BD Accuri C6 flow cytometer (BD Biosciences.) and analyzed using the AccuriC6 software. Antibody titrations experiment (starting concentration 10 μg/ml; 1:3 dilution) allowed calculation of the dissociation constants for the antibodies (see table below).

[5] = biological target: T4, FGFR4 construct with Ig-like domain 1 (amino acids 22-180) on Hek293 cells (UniProt P22455 22-180); assay: flow cytometry on Hek293 cells transfected with the FGFR4 (D1) construct, PE-conjugated anti-human IgG
T4 construct: range 22-180; Expressed on transfected Hek293 cells
Procedure: Hek293 cells were obtained from CLS and cultured in DMEM containing 10% FBS under standard conditions at 37° C. and 5% CO2. On Day 0, cells were seeded and after 24 h cells were transfected with plasmids coding for FGFR4 containing the indicated domain. Cells were allowed to express the proteins for 48 h and were then dissociated from the dish with 5 mM EDTA in PBS followed by incubation with indicated anti-FGFR4 antibody. Binding was determined using a Phycoerythrin-conjugated anti-human IgG antibody (Jackson Immuno Research Europe). Data was acquired with a BD Accuri C6 flow cytometer (BD Biosciences) and analyzed using the AccuriC6 software.

[6] = biological target: antigen of the Biacore assay (FGFR4; construct not stated) (UniProt P22455 22-369, limits assumed); assay: Biacore T100, antibody captured by anti-human IgG, antigen injected, bivalent analyte model, KD1, average of 3
Procedure: Standard amine coupling was applied to prepare a goat anti-human IgG capturing S-CM5 sensor chip (the reference flow cell contained the capturing antibody as well). The carboxymethylated dextran (CMD) surface was activated by injecting a mixture of 200 mM EDC and 50 mM NHS for 7 min (10 μl/min). Subsequently, 30 μg/ml anti-human IgG antibody diluted in 10 mM Na acetate pH 5.0 was injected for 7 minutes (10 μl/min). The remaining unreacted esters were quenched with 1 M Ethanolamine pH 8.5 (7 min, […]). Surface densities of 17892-18376 RU were obtained for the antihuman IgG antibody.
Interaction analyses of antigen with reversibly captured antibody were performed using a Biacore™ T100 instrument (GE Healthcare Bio-Sciences (Piscataway, N.J.; U.S.A.)) at 25° C. in HBS analysis buffer (10 mM HEPES pH 7.4, 150 mM NaCl, 50 μM EDTA, 0.05% Tween 20). 37-38 RU of specific antibody was captured on a flow cell. […] The dissociation was recorded for 10 min at the same flow rate. […]
Data processing (e.g. blank run subtraction) and evaluation was performed by global fitting applying a bivalent analyte binding model using the Biacore T100 Evaluation Software version 2.0.3. The equilibrium dissociation constant KD1 was calculated by dividing kd1 with ka1.

[7] = biological target: T1, human FGFR4 (FGF receptor 4) on cells; assay: cell-based or functional assay; remark: listed apart in the source
[8] = biological target: T2, extracellular domain of human FGFR4 …; assay: ELISA, FGFR4 ECD (myc/His) captured by anti-His antibody, AP-coupled anti-human IgG F(ab') detection
Procedure: as §1

Elk1 luciferase reporter gene assay, % of control (+rhFGF 17), Fab at 0.1 µg/ml [1] | Elk1 luciferase reporter gene assay, % of control (+rhFGF 17), Fab at 1 µg/ml [1] | Elk1 luciferase reporter gene assay, % of control (+rhFGF 17), Fab at 10 µg/ml [1] | Kd [2] | Binder | further results
116 % of control (+rhFGF 17) | 43.2 % of control (+rhFGF 17) | 16.3 % of control (+rhFGF 17) |  | FGFR4 binding Fab U4-5 (Fab, V domains shown) VH: EVQLLESGGGLVQPGGSLRLSCAASGFTFSSNYMNWVRQAPGKGLEWVAVISYDGSNKYYADSVKGRFTISRDNSKNTLYLQMNSLRAEDTAVYYCVTKSRDFWRGPFDYWGQGTLVTVSS VL: not shown | 
 |  |  | 1.5 nM | human anti-FGFR4 antibody U4-5 (antibody, V domains shown, IgG format) VH: EVQLLESGGGLVQPGGSLRLSCAASGFTFSSNYMNWVRQAPGKGLEWVAVISYDGSNKYYADSVKGRFTISRDNSKNTLYLQMNSLRAEDTAVYYCVTKSRDFWRGPFDYWGQGTLVTVSS VL: not shown | Kd [3]: 0.08 nM
82.2 % of control (+rhFGF 17) | 28.8 % of control (+rhFGF 17) | 20.1 % of control (+rhFGF 17) |  | FGFR4 binding Fab U4-4 (Fab, V domains shown) VH: EVQLLESGGGLVQPGGSLRLSCAASGFTFSSNYMSWVRQAPGKGLEWVSLISGSGGSTYYADSVQGRFTISRDNSKNTLYLQMNSLRAEDTAVYYCARNTAGFGYFDLWGQGTLVTVSS VL: not shown | 
 |  |  | 1.6 nM | human anti-FGFR4 antibody U4-6 (antibody, V domains shown, IgG format) VH: EVQLLESGGGLVQPGGSLRLSCAASGFTFSDYYMNWVRQAPGKGLEWVSAIGGSGDRTYYADSVKGRFTISRDNSKNTLYLQMNSLRAEDTAVYYCALGGSYFGYWGQGTLVTVSS VL: not shown | 
70.4 % of control (+rhFGF 17) | 39.6 % of control (+rhFGF 17) | 32 % of control (+rhFGF 17) |  | FGFR4 binding Fab U4-1 (Fab, V domains shown) VH: EVQLLESGGGLVQPGGSLRLSCAASGFTFSRNYMSWVRQAPGKGLEWVSAISGSGGSTYYADSVKGRFTISRDNSKNTLYLQMNSLRAEDTAVYYCARVTSPGAFDIWGQGTLVTVSS VL: QSVLTQPPSASGTPGQRVTISCSGGTSNIGTNTVNWYQQLPGTAPKLLIYRNNQRPSGVPDRFSGSKSGTSSSLAISGLRSEDEADYYCAAWDDSLNGPYVVFGGGTKLTVLG | 
65.2 % of control (+rhFGF 17) | 22.5 % of control (+rhFGF 17) | 12.7 % of control (+rhFGF 17) |  | FGFR4 binding Fab U4-8 (Fab, V domains shown) VH: EVQLLESGGGLVQPGGSLRLSCAASGFTFSSNYMSWVRQAPGKGLEWVSSISGSGGRTYYADSVKGRFTISRDNSKNTLYLQMNSLRAEDTAVYYCARMTVFGAATLWGQGTLVTVSS VL: not shown | 
112 % of control (+rhFGF 17) | 43.8 % of control (+rhFGF 17) | 26.6 % of control (+rhFGF 17) |  | FGFR4 binding Fab U4-2 (Fab, V domains shown) VH: EVQLLESGGGLVQPGGSLRLSCAASGFTFSKAWMSWVRQAPGKGLEWVSAISGSGGSTYYADSVKGRFTISRDNSKNTLYLQMNSLRAEDTAVYYCARLYSYGDFDHWGQGTLVTVSS VL: not shown | 
 |  |  |  | human anti-FGFR4 antibody U4-3 (antibody, V domains shown) VH: EVQLLESGGGLVQPGGSLRLSCAASGFTFSDYYMSWIRQAPGKGLEWVSTISGSGGSTYYADSVKGRFTISRDNSKNTLYLQMNSLRAEDTAVYYCARLTAYGHVDSWGQGTLVTVSS VL: not shown | Kd [4]: 0.32 nM; binding result [5]: no binding
 |  |  | 0.15 nM | human anti-FGFR4 antibody U4-2 (antibody, V domains shown) VH: EVQLLESGGGLVQPGGSLRLSCAASGFTFSKAWMSWVRQAPGKGLEWVSAISGSGGSTYYADSVKGRFTISRDNSKNTLYLQMNSLRAEDTAVYYCARLYSYGDFDHWGQGTLVTVSS VL: not shown | 
 |  |  | 0.85 nM | human anti-FGFR4 antibody U4-1 (antibody, V domains shown) VH: EVQLLESGGGLVQPGGSLRLSCAASGFTFSRNYMSWVRQAPGKGLEWVSAISGSGGSTYYADSVKGRFTISRDNSKNTLYLQMNSLRAEDTAVYYCARVTSPGAFDIWGQGTLVTVSS VL: QSVLTQPPSASGTPGQRVTISCSGGTSNIGTNTVNWYQQLPGTAPKLLIYRNNQRPSGVPDRFSGSKSGTSSSLAISGLRSEDEADYYCAAWDDSLNGPYVVFGGGTKLTVLG | 
 |  |  | 0.46 nM | human anti-FGFR4 antibody U4-8 (antibody, V domains shown, IgG format) VH: EVQLLESGGGLVQPGGSLRLSCAASGFTFSSNYMSWVRQAPGKGLEWVSSISGSGGRTYYADSVKGRFTISRDNSKNTLYLQMNSLRAEDTAVYYCARMTVFGAATLWGQGTLVTVSS VL: not shown | 
72.6 % of control (+rhFGF 17) | 33.1 % of control (+rhFGF 17) | 16.8 % of control (+rhFGF 17) |  | FGFR4 binding Fab U4-7 (Fab, V domains shown) VH: EVQLLESGGGLVQPGGSLRLSCAASGFTFSDYYMSWVRQAPGKGLEWVSAISGSGGSTYYADSVKGRFTISRDNSKNTLYLQMNSLRAEDTAVYYCATLATYGPFDDWGQGTLVTVSS VL: not shown | 
 |  |  | 1.3 nM | human anti-FGFR4 antibody U4-7 (antibody, V domains shown, IgG format) VH: EVQLLESGGGLVQPGGSLRLSCAASGFTFSDYYMSWVRQAPGKGLEWVSAISGSGGSTYYADSVKGRFTISRDNSKNTLYLQMNSLRAEDTAVYYCATLATYGPFDDWGQGTLVTVSS VL: not shown | 
 |  |  |  | human anti-FGFR4 antibody U4-9 (antibody, V domains shown, IgG format) VH: EVQLLESGGGLVQPGGSLRLSCAASGFTFSDYYMSWIRQAPGKGLEWVSTISGSGGSTYYADSVKGRFTISRDNSKNTLYLQMNSLRAEDTAVYYCARLTAYGHVDSWGQGTLVTVSS VL: not shown | Kd [6]: 0.12 nM; IC50, NIH3T3 spheroid growth assay (CellTiter-Glo) [7]: 10.6 nM; Kd [3]: 0.07 nM; EC50 (read off the curve) [8]: ~0.08 nM
